Here are results for 91 sequences from the supplement of paper PMC9112550, “Optimization of the antimicrobial peptide Bac7 by deep mutational scanning” (BMC Biology, 2022).

For this series, the system named is Escherichia coli TOP10. The series is described as follows: shrunken log2 fold change of peptide-encoding DNA abundance (4.5 h post-induction vs induction); higher = less antimicrobial activity (less host growth inhibition). The settings on record: time post-induction: 4.5 h; library: site-saturation at positions 5, 18, 19, 20.
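Also: peptides expressed intracellularly from a pBAD plasmid library in pooled LB shake-flask culture, induced with 0.3% L-arabinose, DNA abundance read by NGS, three biological replicates, DESeq2 with apeglm shrinkage.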

RRIRIRPPRLPRPRPRPINGPRP: the “shrunken log2 fold change” value was -0.383.

As to RRIRARPPRLPRPRPRPIYEPRP, the “shrunken log2 fold change” value was -0.352.

On to RRIRLRPPRLPRPRPRPGGNPRP, for which the “shrunken log2 fold change” value was -0.0421.

For RRIRFRPPRLPRPRPRPLKFPRP, the “shrunken log2 fold change” value is -0.544.

In the case of RRIRFRPPRLPRPRPRPKCRPRP, the “shrunken log2 fold change” value was -0.0272.

In the case of RRIRNRPPRLPRPRPRPAVCPRP, the “shrunken log2 fold change” value worked out at 0.158.

With RRIRARPPRLPRPRPRPNGMPRP, the “shrunken log2 fold change” value was -0.0336.

RRIRWRPPRLPRPRPRPYCMPRP: the “shrunken log2 fold change” value is -0.401.

On to RRIRKRPPRLPRPRPRPHCKPRP, for which the “shrunken log2 fold change” value is -0.397.

As to RRIRFRPPRLPRPRPRPYYAPRP, the “shrunken log2 fold change” value is -1.21.

As for RRIRERPPRLPRPRPRPVQPPRP, the “shrunken log2 fold change” value is 0.336.

On to RRIRKRPPRLPRPRPRPPTEPRP, for which the “shrunken log2 fold change” value came out at 0.395.

Consider RRIRFRPPRLPRPRPRPHLYPRP, for which the “shrunken log2 fold change” value is -0.355.

Consider RRIRTRPPRLPRPRPRPYLAPRP, for which the “shrunken log2 fold change” value is -0.378.

As to RRIRMRPPRLPRPRPRPTYWPRP, the “shrunken log2 fold change” value stood at 0.169.

On to RRIRMRPPRLPRPRPRPFAEPRP, for which the “shrunken log2 fold change” value came to 0.625.

Regarding RRIRIRPPRLPRPRPRPVWKPRP, the “shrunken log2 fold change” value was determined as 0.154.

With RRIRARPPRLPRPRPRPVSPPRP, the “shrunken log2 fold change” value was 0.664.

With RRIRFRPPRLPRPRPRPLFPPRP, the “shrunken log2 fold change” value was -0.23.

In the case of RRIRFRPPRLPRPRPRPNEPPRP, the “shrunken log2 fold change” value was -0.00783.

With RRIRVRPPRLPRPRPRPFVHPRP, the “shrunken log2 fold change” value was -0.17.

With RRIRSRPPRLPRPRPRPSSTPRP, the “shrunken log2 fold change” value is -0.397.

As to RRIRFRPPRLPRPRPRPWLHPRP, the “shrunken log2 fold change” value was 0.0608.

In the case of RRIRPRPPRLPRPRPRPRKKPRP, the “shrunken log2 fold change” value came to 0.0638.

Take RRIRGRPPRLPRPRPRPICDPRP: the “shrunken log2 fold change” value was found to be 0.717.

RRIRVRPPRLPRPRPRPELAPRP: the “shrunken log2 fold change” value worked out at 0.659.

Regarding RRIRYRPPRLPRPRPRPQRTPRP, the “shrunken log2 fold change” value is -0.335.

Turning to RRIRGRPPRLPRPRPRPKYEPRP, the “shrunken log2 fold change” value is 0.56.

Take RRIRKRPPRLPRPRPRPACMPRP: the “shrunken log2 fold change” value worked out at 0.605.

On to RRIRERPPRLPRPRPRPWFDPRP, for which the “shrunken log2 fold change” value was -0.529.

In the case of RRIRHRPPRLPRPRPRPTVFPRP, the “shrunken log2 fold change” value is -0.251.

Consider RRIRHRPPRLPRPRPRPSVMPRP, for which the “shrunken log2 fold change” value is -0.19.

In the case of RRIRTRPPRLPRPRPRPGTLPRP, the “shrunken log2 fold change” value stood at 0.16.

Consider RRIRWRPPRLPRPRPRPGIRPRP, for which the “shrunken log2 fold change” value is 0.29.

On to RRIRLRPPRLPRPRPRPITFPRP, for which the “shrunken log2 fold change” value stood at 0.0415.

In the case of RRIRLRPPRLPRPRPRPECQPRP, the “shrunken log2 fold change” value was -0.00577.

As for RRIRERPPRLPRPRPRPSSIPRP, the “shrunken log2 fold change” value was -0.855.

For the sequence RRIRTRPPRLPRPRPRPCDLPRP, the “shrunken log2 fold change” value is 0.0183.

For the sequence RRIRVRPPRLPRPRPRPHRNPRP, the “shrunken log2 fold change” value is -0.531.

RRIRNRPPRLPRPRPRPRGVPRP: the “shrunken log2 fold change” value turned out to be 0.195.

With RRIRERPPRLPRPRPRPSKEPRP, the “shrunken log2 fold change” value was -0.0565.

Take RRIRFRPPRLPRPRPRPFPLPRP: the “shrunken log2 fold change” value was -0.289.

Turning to RRIRMRPPRLPRPRPRPIIVPRP, the “shrunken log2 fold change” value is -0.0119.

On to RRIRDRPPRLPRPRPRPIHLPRP, for which the “shrunken log2 fold change” value is -0.0597.

For the sequence RRIRGRPPRLPRPRPRPHFQPRP, the “shrunken log2 fold change” value was -0.099.

Regarding RRIRKRPPRLPRPRPRPANTPRP, the “shrunken log2 fold change” value is -0.0533.

Take RRIRSRPPRLPRPRPRPGNHPRP: the “shrunken log2 fold change” value is -0.311.

In the case of RRIRQRPPRLPRPRPRPVGQPRP, the “shrunken log2 fold change” value is 0.0327.

As to RRIRSRPPRLPRPRPRPSSEPRP, the “shrunken log2 fold change” value worked out at 0.0612.

For the sequence RRIRGRPPRLPRPRPRPVQKPRP, the “shrunken log2 fold change” value amounted to 0.434.

For RRIRRRPPRLPRPRPRPVSTPRP, the “shrunken log2 fold change” value is -0.134.

As to RRIRSRPPRLPRPRPRPLTEPRP, the “shrunken log2 fold change” value came out at 0.21.

In the case of RRIRDRPPRLPRPRPRPRMAPRP, the “shrunken log2 fold change” value was found to be 0.465.

Take RRIRDRPPRLPRPRPRPLQRPRP: the “shrunken log2 fold change” value was -0.00347.

RRIRKRPPRLPRPRPRPHLWPRP: the “shrunken log2 fold change” value came out at 0.709.

In the case of RRIRNRPPRLPRPRPRPIAEPRP, the “shrunken log2 fold change” value stood at 0.196.

With RRIRARPPRLPRPRPRPAFSPRP, the “shrunken log2 fold change” value was determined as 0.215.

Consider RRIRARPPRLPRPRPRPREYPRP, for which the “shrunken log2 fold change” value was determined as 0.5.

For the sequence RRIRVRPPRLPRPRPRPHSLPRP, the “shrunken log2 fold change” value was -0.232.

In the case of RRIRARPPRLPRPRPRPFCIPRP, the “shrunken log2 fold change” value is -0.0716.

On to RRIRVRPPRLPRPRPRPFEWPRP, for which the “shrunken log2 fold change” value was -0.102.

As for RRIRMRPPRLPRPRPRPMMLPRP, the “shrunken log2 fold change” value is -0.15.

With RRIRCRPPRLPRPRPRPSYPPRP, the “shrunken log2 fold change” value is -0.703.

As for RRIRGRPPRLPRPRPRPWNYPRP, the “shrunken log2 fold change” value was -0.0902.

As for RRIRVRPPRLPRPRPRPSEWPRP, the “shrunken log2 fold change” value was -0.0811.

Regarding RRIRCRPPRLPRPRPRPFWVPRP, the “shrunken log2 fold change” value came out at 0.0496.

Regarding RRIRNRPPRLPRPRPRPDFHPRP, the “shrunken log2 fold change” value is -0.441.

RRIRFRPPRLPRPRPRPPKKPRP: the “shrunken log2 fold change” value was found to be 0.847.

For the sequence RRIRPRPPRLPRPRPRPHGKPRP, the “shrunken log2 fold change” value was determined as 0.0675.

Consider RRIRLRPPRLPRPRPRPGNNPRP, for which the “shrunken log2 fold change” value is -0.58.

As to RRIRKRPPRLPRPRPRPNWPPRP, the “shrunken log2 fold change” value amounted to 0.19.

In the case of RRIRVRPPRLPRPRPRPETSPRP, the “shrunken log2 fold change” value is -0.369.

For RRIRYRPPRLPRPRPRPEENPRP, the “shrunken log2 fold change” value was -0.0116.

RRIRFRPPRLPRPRPRPSNCPRP: the “shrunken log2 fold change” value is -0.529.

On to RRIRIRPPRLPRPRPRPQCYPRP, for which the “shrunken log2 fold change” value was -0.0646.

For the sequence RRIRKRPPRLPRPRPRPQVAPRP, the “shrunken log2 fold change” value is -0.0663.

RRIRCRPPRLPRPRPRPVRLPRP: the “shrunken log2 fold change” value came to 0.499.

As to RRIRGRPPRLPRPRPRPPHLPRP, the “shrunken log2 fold change” value stood at 0.558.

For the sequence RRIRYRPPRLPRPRPRPHMQPRP, the “shrunken log2 fold change” value was -1.07.

As for RRIRLRPPRLPRPRPRPAPFPRP, the “shrunken log2 fold change” value is -0.0923.

As to RRIRVRPPRLPRPRPRPCCAPRP, the “shrunken log2 fold change” value amounted to 0.151.

For RRIRDRPPRLPRPRPRPPWTPRP, the “shrunken log2 fold change” value is 0.238.

For the sequence RRIRNRPPRLPRPRPRPPCQPRP, the “shrunken log2 fold change” value was -0.294.

Regarding RRIRMRPPRLPRPRPRPYQWPRP, the “shrunken log2 fold change” value was -0.055.

Regarding RRIRIRPPRLPRPRPRPCRGPRP, the “shrunken log2 fold change” value was found to be 0.0305.

Regarding RRIRKRPPRLPRPRPRPHNCPRP, the “shrunken log2 fold change” value amounted to 0.0806.

For the sequence RRIRVRPPRLPRPRPRPWQLPRP, the “shrunken log2 fold change” value was -0.421.

For the sequence RRIRWRPPRLPRPRPRPRWYPRP, the “shrunken log2 fold change” value was -0.0387.

RRIRPRPPRLPRPRPRPMSAPRP: the “shrunken log2 fold change” value turned out to be 0.0743.

Turning to RRIRHRPPRLPRPRPRPFPEPRP, the “shrunken log2 fold change” value is -0.104.

As for RRIRSRPPRLPRPRPRPYCRPRP, the “shrunken log2 fold change” value was -0.512.
